What was measured:
Assay in all cases: SPR
[1] = molecular target: RG801 (Fc domain of glycosylated clone 801 constructed with the Fab arms of Rituxan) (human)
[2] = molecular target: RG802 (Rituxan clone 802, glycosylated) (human)
[3] = molecular target: RA801 (Fc domain of aglycosylated clone 801 constructed with the Fab arms of Rituxan) (human)
[4] = molecular target: IgG1 (wild-type glycosylated IgG1) (human) [IgG part: P01857]

Kd [1] [nM] | Kd [2] [nM] | Kd [3] [nM] | Kd [4] [nM] | Substance
648 | – | – | – | human FcγRI (monomeric, soluble) (from UniProt P12314 16-292) (receptor)
283 | 289 | 959 | 623 | monomeric human FcRn–β2-microglobulin (from UniProt P55899 24-365; P61769 21-119) (complex)
